This is an account of results in patent US20230203177A1 (Bristol-Myers Squibb, published 2023).

The labels stand for the following.
B1: M17 (HC-wt / LC-K45Q) (antibody, human IgG1, kappa)
heavy: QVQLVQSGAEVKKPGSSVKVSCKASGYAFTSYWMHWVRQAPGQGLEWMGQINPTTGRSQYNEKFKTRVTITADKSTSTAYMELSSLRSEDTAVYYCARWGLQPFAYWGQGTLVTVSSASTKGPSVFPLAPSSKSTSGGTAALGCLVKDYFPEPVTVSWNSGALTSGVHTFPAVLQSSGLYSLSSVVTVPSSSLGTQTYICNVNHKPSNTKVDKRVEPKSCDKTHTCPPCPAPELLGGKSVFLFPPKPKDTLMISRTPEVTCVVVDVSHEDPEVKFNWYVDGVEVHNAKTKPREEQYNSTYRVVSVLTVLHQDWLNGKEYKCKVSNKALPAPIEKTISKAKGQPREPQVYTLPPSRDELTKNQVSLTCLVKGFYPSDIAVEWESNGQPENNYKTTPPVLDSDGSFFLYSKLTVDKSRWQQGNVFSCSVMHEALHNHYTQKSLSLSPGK
light: DIQMTQSPSFLSASVGDRVTITCKASQDVSTAVAWYQQKPGKAPQLLIYSASYRYTGVPSRFSGSGSGTDFTLTISSLQPEDFATYYCQQHYSTPWTFGGGTKVEIKRTVAAPSVFIFPPSDEQLKSGTASVVCLLNNFYPREAKVQWKVDNALQSGNSQESVTEQDSKDSTYSLSSTLTLSKADYEKHKVYACEVTHQGLSSPVTKSFNRGEC
notes: IgG1-P238K; also called HC1/LC2
B2: M28 (HC-R57E,K74Q / LC-K45Q) (antibody, human IgG1, kappa, V domains shown)
VH: QVQLVQSGAEVKKPGSSVKVSCKASGYAFTSYWMHWVRQAPGQGLEWMGQINPTTGESQYNEKFKTRVTITADQSTSTAYMELSSLRSEDTAVYYCARWGLQPFAYWGQGTLVTVSS
VL: DIQMTQSPSFLSASVGDRVTITCKASQDVSTAVAWYQQKPGKAPQLLIYSASYRYTGVPSRFSGSGSGTDFTLTISSLQPEDFATYYCQQHYSTPWTFGGGTKVEIKR
notes: IgG1-P238K; also called HC12/LC2
B3: M31 (HC-R67Q / LC-K45Q) (antibody, human IgG1, kappa, V domains shown)
VH: B2 VH with E57R, R67Q, Q74K
VL: B2 VL
notes: IgG1-P238K; also called HC15/LC2
B4: M23 (HC-K23E / LC-K45Q) (antibody, human IgG1, kappa)
heavy: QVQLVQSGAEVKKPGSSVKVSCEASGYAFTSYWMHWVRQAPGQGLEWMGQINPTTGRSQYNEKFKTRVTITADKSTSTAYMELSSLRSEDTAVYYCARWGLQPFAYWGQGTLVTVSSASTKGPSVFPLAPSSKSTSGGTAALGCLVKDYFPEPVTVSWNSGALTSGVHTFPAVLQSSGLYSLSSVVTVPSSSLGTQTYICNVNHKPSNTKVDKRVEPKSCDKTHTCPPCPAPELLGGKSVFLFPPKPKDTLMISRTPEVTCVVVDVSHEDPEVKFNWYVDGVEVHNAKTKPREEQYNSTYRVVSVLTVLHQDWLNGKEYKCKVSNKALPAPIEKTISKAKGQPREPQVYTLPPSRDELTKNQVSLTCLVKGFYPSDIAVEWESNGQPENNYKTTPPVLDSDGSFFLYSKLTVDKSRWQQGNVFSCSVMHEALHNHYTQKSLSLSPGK
light: B1 light
notes: IgG1-P238K; also called HC7/LC2
B5: M18 (HC-K12Q,K13Q / LC-K45Q) (antibody, human IgG1, kappa)
heavy: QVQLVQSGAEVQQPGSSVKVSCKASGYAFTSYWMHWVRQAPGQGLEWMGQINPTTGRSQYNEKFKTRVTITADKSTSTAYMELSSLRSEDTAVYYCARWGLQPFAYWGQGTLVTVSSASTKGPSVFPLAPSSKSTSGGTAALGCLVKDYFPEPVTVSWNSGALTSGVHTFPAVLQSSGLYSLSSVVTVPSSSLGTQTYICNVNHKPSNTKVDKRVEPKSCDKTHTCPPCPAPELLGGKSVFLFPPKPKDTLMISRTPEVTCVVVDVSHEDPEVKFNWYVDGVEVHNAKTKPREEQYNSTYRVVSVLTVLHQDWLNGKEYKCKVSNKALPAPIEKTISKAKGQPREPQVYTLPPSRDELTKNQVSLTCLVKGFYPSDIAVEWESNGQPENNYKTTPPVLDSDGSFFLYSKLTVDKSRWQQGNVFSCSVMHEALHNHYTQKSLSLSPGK
light: B1 light
notes: IgG1-P238K; also called HC2/LC2
B6: M2 (HC-K12Q,K13Q / LC-wt) (antibody, human IgG1, kappa)
heavy: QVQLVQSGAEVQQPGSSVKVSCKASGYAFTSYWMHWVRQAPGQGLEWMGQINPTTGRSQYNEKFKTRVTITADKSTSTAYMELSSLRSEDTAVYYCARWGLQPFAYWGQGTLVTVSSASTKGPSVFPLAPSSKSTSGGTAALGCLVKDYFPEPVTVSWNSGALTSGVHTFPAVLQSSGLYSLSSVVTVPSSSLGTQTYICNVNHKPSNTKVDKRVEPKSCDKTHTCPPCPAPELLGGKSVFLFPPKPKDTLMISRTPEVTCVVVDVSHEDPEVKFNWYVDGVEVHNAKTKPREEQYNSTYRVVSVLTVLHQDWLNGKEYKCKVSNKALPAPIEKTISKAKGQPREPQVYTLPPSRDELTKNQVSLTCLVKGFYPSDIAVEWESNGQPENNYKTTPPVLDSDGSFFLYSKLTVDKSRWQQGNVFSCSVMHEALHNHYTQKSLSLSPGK
light: B1 light with Q45K
notes: IgG1-P238K; also called HC2/LC1
B7: M29 (HC-E46K,E62K / LC-K45Q) (antibody, human IgG1, kappa, V domains shown)
VH: B2 VH with E46K, E57R, E62K, Q74K
VL: B2 VL
notes: IgG1-P238K; also called HC13/LC2
B8: M7 (HC-K23E / LC-wt) (antibody, human IgG1, kappa)
heavy: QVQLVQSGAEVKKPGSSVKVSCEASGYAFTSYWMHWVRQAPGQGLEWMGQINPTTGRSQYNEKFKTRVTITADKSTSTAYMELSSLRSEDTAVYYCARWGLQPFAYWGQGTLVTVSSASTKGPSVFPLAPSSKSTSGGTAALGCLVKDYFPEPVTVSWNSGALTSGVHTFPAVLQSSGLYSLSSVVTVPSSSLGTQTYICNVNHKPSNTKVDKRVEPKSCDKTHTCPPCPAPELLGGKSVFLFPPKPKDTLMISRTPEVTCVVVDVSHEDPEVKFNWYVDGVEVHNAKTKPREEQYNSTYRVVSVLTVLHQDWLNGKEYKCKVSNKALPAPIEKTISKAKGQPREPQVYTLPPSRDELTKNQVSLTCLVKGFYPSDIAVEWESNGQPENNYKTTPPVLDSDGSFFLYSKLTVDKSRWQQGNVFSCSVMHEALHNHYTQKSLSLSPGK
light: B1 light with Q45K
notes: IgG1-P238K; also called HC7/LC1
B9: M21 (HC-K12E,K13Q,K23E / LC-K45Q) (antibody, human IgG1, kappa)
heavy: not shown
light: B1 light
notes: IgG1-P238K; also called HC5/LC2
B10: M22 (HC-K12V,K19S,K23A / LC-K45Q) (antibody, human IgG1, kappa, V domains shown)
VH: B2 VH with K12V, K19S, K23A, E57R, Q74K
VL: B2 VL
notes: IgG1-P238K; also called HC6/LC2
B11: M25 (HC-K63Q,R67E / LC-K45Q) (antibody, human IgG1, kappa, V domains shown)
VH: B2 VH with E57R, K63Q, R67E, Q74K
VL: B2 VL
notes: IgG1-P238K; also called HC9/LC2
B12: M12 (HC-R57E,K74Q / LC-wt) (antibody, human IgG1, kappa)
heavy: not shown
light: B1 light with Q45K
notes: IgG1-P238K; also called HC12/LC1
B13: M20 (HC-K12E / LC-K45Q) (antibody, human IgG1, kappa)
heavy: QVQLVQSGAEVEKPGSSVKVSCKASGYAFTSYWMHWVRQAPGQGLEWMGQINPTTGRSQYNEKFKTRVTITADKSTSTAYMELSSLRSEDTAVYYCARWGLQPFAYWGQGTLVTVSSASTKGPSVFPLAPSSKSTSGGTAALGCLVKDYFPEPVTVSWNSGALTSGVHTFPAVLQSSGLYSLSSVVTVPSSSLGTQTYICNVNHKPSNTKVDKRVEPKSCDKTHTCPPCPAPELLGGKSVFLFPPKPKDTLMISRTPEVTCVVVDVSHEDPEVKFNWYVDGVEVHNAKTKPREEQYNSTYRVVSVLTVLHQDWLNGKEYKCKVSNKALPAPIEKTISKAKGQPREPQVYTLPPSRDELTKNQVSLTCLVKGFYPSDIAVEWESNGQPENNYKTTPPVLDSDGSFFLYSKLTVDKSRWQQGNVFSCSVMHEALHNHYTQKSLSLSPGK
light: B1 light
notes: IgG1-P238K; also called HC4/LC2
B14: M9 (HC-K63Q,R67E / LC-wt) (antibody, human IgG1, kappa)
heavy: not shown
light: B1 light with Q45K
notes: IgG1-P238K; also called HC9/LC1
B15: M27 (HC-R57E / LC-K45Q) (antibody, human IgG1, kappa, V domains shown)
VH: B2 VH with Q74K
VL: B2 VL
notes: IgG1-P238K; also called HC11/LC2
B16: M8 (HC-R38Q,K63Q,R67Q / LC-wt) (antibody, human IgG1, kappa)
heavy: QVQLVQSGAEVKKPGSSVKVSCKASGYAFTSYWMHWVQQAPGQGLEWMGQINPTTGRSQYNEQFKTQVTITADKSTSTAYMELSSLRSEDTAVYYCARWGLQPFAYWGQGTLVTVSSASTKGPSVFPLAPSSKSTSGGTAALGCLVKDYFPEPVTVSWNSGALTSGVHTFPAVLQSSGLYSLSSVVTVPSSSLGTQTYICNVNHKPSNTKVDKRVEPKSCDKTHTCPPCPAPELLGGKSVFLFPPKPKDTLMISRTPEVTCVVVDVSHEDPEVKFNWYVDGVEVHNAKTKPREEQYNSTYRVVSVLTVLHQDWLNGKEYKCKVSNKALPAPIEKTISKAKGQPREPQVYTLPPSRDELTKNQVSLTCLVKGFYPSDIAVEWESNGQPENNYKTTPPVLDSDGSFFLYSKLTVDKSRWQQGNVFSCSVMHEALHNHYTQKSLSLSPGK
light: B1 light with Q45K
notes: IgG1-P238K; also called HC8/LC1
B17: M15 (HC-R67Q / LC-wt) (antibody, human IgG1, kappa)
heavy: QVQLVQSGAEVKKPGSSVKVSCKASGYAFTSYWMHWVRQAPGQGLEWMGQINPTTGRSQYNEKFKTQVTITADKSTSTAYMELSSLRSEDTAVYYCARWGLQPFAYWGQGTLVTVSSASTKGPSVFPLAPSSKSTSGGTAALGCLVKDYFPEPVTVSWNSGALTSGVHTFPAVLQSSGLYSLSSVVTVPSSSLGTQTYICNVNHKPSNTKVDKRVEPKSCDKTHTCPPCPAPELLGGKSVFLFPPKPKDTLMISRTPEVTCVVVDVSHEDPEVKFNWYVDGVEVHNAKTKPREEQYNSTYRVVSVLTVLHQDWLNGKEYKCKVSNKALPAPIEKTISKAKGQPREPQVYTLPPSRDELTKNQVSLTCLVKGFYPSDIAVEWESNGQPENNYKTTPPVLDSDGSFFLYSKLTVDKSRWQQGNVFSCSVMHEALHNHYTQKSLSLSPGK
light: B1 light with Q45K
notes: IgG1-P238K; also called HC15/LC1
B18: M6 (HC-K12V,K19S,K23A / LC-wt) (antibody, human IgG1, kappa)
heavy: not shown
light: B1 light with Q45K
notes: IgG1-P238K; also called HC6/LC1
B19: M14 (HC-K74T / LC-wt) (antibody, human IgG1, kappa)
heavy: not shown
light: B1 light with Q45K
notes: IgG1-P238K; also called HC14/LC1
B20: M16 (HC-K63Q / LC-wt) (antibody, human IgG1, kappa)
heavy: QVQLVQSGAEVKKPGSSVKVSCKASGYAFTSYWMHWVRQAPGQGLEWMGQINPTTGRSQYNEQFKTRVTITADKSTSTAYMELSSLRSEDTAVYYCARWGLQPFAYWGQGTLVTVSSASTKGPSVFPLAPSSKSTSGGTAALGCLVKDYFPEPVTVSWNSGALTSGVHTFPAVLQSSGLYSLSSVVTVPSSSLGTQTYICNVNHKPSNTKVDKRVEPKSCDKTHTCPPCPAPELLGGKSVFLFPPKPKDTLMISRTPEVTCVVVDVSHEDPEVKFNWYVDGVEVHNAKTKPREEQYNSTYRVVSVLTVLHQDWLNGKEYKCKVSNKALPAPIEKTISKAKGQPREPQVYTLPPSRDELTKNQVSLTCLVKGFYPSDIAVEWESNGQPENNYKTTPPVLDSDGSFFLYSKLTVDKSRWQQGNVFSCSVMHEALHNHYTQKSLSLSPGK
light: B1 light with Q45K
notes: IgG1-P238K; also called HC16/LC1
B21: M34 (HC-K12Q,K13Q / LC-K45E) (antibody, human IgG1, kappa)
heavy: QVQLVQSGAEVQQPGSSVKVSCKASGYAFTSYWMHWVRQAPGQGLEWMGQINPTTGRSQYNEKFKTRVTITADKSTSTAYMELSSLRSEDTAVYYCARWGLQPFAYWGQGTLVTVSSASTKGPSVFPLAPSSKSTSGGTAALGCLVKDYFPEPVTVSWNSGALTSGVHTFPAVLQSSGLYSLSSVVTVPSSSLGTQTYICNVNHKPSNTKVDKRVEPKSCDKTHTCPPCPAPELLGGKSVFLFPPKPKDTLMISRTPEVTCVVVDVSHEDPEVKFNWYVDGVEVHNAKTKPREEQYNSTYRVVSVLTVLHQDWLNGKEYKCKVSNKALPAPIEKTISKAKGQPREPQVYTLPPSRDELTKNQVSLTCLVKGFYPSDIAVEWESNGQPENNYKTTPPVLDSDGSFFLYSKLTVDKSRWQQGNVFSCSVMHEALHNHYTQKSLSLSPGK
light: B1 light with Q45E
notes: IgG1-P238K; also called HC2/LC3
B22: M5 (HC-K12E,K13Q,K23E / LC-wt) (antibody, human IgG1, kappa)
heavy: not shown
light: B1 light with Q45K
notes: IgG1-P238K; also called HC5/LC1
B23: M11 (HC-R57E / LC-wt) (antibody, human IgG1, kappa)
heavy: not shown
light: B1 light with Q45K
notes: IgG1-P238K; also called HC11/LC1
B24: M24 (HC-R38Q,K63Q,R67Q / LC-K45Q) (antibody, human IgG1, kappa, V domains shown)
VH: B2 VH with R38Q, E57R, K63Q, R67Q, Q74K
VL: B2 VL
notes: IgG1-P238K; also called HC8/LC2
B25: M3 (HC-K12Q,K13Q,K23Q / LC-wt) (antibody, human IgG1, kappa)
heavy: not shown
light: B1 light with Q45K
notes: IgG1-P238K; also called HC3/LC1
B26: M26 (HC-R67E / LC-K45Q) (antibody, human IgG1, kappa, V domains shown)
VH: B2 VH with E57R, R67E, Q74K
VL: B2 VL
notes: IgG1-P238K; also called HC10/LC2
B27: M19 (HC-K12Q,K13Q,K23Q / LC-K45Q) (antibody, human IgG1, kappa, V domains shown)
VH: B2 VH with K12Q, K13Q, K23Q, E57R, Q74K
VL: B2 VL
notes: IgG1-P238K; also called HC3/LC2
B28: M30 (HC-K74T / LC-K45Q) (antibody, human IgG1, kappa, V domains shown)
VH: B2 VH with E57R, Q74T
VL: B2 VL
notes: IgG1-P238K; also called HC14/LC2
B29: M32 (HC-K63Q / LC-K45Q) (antibody, human IgG1, kappa, V domains shown)
VH: B2 VH with E57R, K63Q, Q74K
VL: B2 VL
notes: IgG1-P238K; also called HC16/LC2

As a reminder, the Kd is the free concentration of one partner at which half of the binding sites on the other are occupied at equilibrium, for simple one-to-one binding. Low values mean a tighter complex, high ones a looser complex.

Numbering of substitutions follows the chain as printed. Names and notes keep the numbering of the source.

T1 sequence (P25942 21-193 limits assumed): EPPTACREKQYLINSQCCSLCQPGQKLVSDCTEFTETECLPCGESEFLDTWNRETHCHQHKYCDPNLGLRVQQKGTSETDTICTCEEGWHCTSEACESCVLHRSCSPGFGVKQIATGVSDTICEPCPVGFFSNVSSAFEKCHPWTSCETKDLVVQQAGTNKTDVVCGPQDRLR

This experiment addresses T1, soluble human CD40 extracellular domain (human, UniProt P25942 21-193).
T1 construct: Produced in house; also called hCD40; soluble hCD40 extracellular domain
Kind of experiment: SPR, Ab captured from supernatant on protein A, hCD40 ECD analyte. How it is done:
The titer data (Table 21) were used to normalize the antibody concentration in each supernatant to 3 μg/ml, and these antibodies were captured out of the supernatants on a protein A CMS Series S sensor chip (GE Healthcare), and tested for binding to two concentrations (5 nM and 50 nM) of soluble hCD40 extracellular domain.
CD40 binding SPR of antibody supernatants: Surface plasmon resonance (SPR) studies were conducted on a BIAcore™ T200 instrument (GE Healthcare, Chicago Ill.). A Series S Protein A sensor chip (GE Healthcare, Chicago Ill.) was equilibrated with SPR running buffer of 10 mM NaPO₄, 130 mM NaCl, 0.05% tween 20, (PBS-T) pH 7.2 at 25° C. The 96 antibody supernatants were normalized to a concentration of 3 μg/ml by diluting with PBS-T using a PerkinElmer JANUS® G3 system (PerkinElmer, Akron, Ohio). After priming the system, the 3 μg/ml antibody samples were captured on the protein A surface for 30 s at 10 μl/min Binding of 50 nM and 500 nM human CD40 extracellular domain (produced in house) was evaluated using association time of 180 s at 30 μl/min, followed by a dissociation time of 180 s at 30 μl/min Regeneration between cycles was accomplished using two 15 s injections of 10 mM glycine pH 1.5. […] Data were analyzed using BIAcore™ T200 evaluation software by fitting to a 1:1 Langmuir model.
Background: SPR reads the build-up and loss of mass on a sensor chip optically.
Turning to B1, the Kd turned out to be 4.1 nM.

Take B2: binding was put at a Kd of 15.7 nM.

The molecule B3 displayed a Kd of 3.1 nM. Compared with the last molecule, the Kd is about 5.1-fold lower.

B4 yielded a Kd of 4.1 nM.

Take B5: binding was characterised by a dissociation constant (Kd) of 3.4 nM. The Kd values of the last two molecules are within 1.5-fold of each other.

With B6, binding was put at a Kd of 3.7 nM. This Kd and that of the molecule before are within 1.5-fold of each other.

B7: binding was characterised by a dissociation constant (Kd) of 8.8 nM. Compared with the last molecule, the Kd is about 2.4-fold higher.

B8 showed a Kd of 4.5 nM.

The molecule B9 yielded a Kd of 3.7 nM.

Regarding B10, the Kd turned out to be 3.5 nM.

Molecule B11 showed a Kd of 3.1 nM.

As for B12, binding was put at a Kd of 14 nM.

The molecule B13 had a Kd of 3.3 nM.

For the molecule B14, the Kd was determined as 3.2 nM. The Kd values of the last two molecules are within 1.5-fold of each other.

As for B15, the Kd was found to be 10.4 nM.

B16: the Kd worked out at 3.4 nM.

B17 showed a Kd of 3.4 nM.

Molecule B18 yielded an equilibrium dissociation constant (Kd) of 3.8 nM. This Kd and that of the molecule before are within 1.5-fold of each other.

With B19, the Kd was 4 nM.

B20 returned a Kd of 4.1 nM.

Molecule B21 yielded a Kd of 3.3 nM.

Consider B22, for which binding was put at a Kd of 3.8 nM.

Molecule B23 returned a Kd of 10.2 nM. This Kd is about 2.7-fold higher than that of the molecule before.

For the molecule B24, binding was put at a Kd of 2.9 nM. This Kd lies about 3.5-fold lower than the previous one.

For B25, the Kd was found to be 3.7 nM.

In the case of B26, the Kd turned out to be 3 nM.

B27 had an equilibrium dissociation constant (Kd) of 3.8 nM.

Consider B28, for which the affinity, expressed as Kd, was 4 nM.

B29 had a Kd of 3.9 nM.
